Source: patent US20100086943

System: fusion protein comprising the c-myc tag, a generic substrate recognized by the serine/threonine kinases and the FLAG tag, expressed from the pSEMS plasmid (Snaptag)

Cam kinase II (expressed from CamKII delta-pcDNA 3.1)
phosphorylation of the substrate measured by TR-FRET after activation by ionomycin: in the presence of ionomycin, the signal measured is much greater than in its absence

kinase Akt1 (expressed from Akt1-pcDNA 3.1)
phosphorylation of the substrate measured by TR-FRET (delta F): The co-transfection with the plasmid coding for the protein substrate and the plasmid coding for the kinase Akt1 makes it possible to increase the quantity of protein substrate phosphorylated specifically by Akt1
